Experimental data reported in US20170306033A1 (Amgen, published 2017).
Substitutions are numbered along the chain they refer to.

T1: human PAC1 receptor (human, UniProt P41586 21-468)
T1 sequence: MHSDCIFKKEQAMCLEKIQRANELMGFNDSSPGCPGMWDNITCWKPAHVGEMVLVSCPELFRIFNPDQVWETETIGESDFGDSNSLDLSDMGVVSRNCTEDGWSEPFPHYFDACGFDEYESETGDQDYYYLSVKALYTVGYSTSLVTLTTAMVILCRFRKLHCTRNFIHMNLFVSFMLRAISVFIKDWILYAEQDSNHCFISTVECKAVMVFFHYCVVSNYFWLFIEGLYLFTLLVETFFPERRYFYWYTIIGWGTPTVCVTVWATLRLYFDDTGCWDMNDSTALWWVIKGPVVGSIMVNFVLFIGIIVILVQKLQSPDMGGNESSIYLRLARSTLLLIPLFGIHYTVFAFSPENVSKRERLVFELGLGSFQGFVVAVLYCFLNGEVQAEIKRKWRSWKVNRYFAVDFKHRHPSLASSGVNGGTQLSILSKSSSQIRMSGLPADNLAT

B1: iPS:326628 (bispecific antibody, human IgG2, kappa, lambda)
light 1: DIQLTQSPSFLSASVGDRVTITCRASQSIGRSLHWYQQKPGKAPKLLIKYASQSLSGVPSRFSGSGSGTEFTLTISSLQPEDFATYYCHQSSRLPFTFGPGTKVDIKRTVAAPSVFIFPPSDEQLKSGTASVVCLLNNFYPREAKVQWKVDNALQSGNSQESVTEQDSKDSTYSLESTLTLSKADYEKHKVYACEVTHQGLSSPVTKSFNRGEC
heavy 1: QVQLVESGAEVVKPGASVKVSCKASGFTFSRFAMHWVRQAPGQGLEWMGVISYDGGNKYYAESVKGRVTMTRDTSTSTLYMELSSLRSEDTAVYYCARGYDVLTGYPDYWGQGTLVTVSSASTKGPSVFPLAPCSRSTSESTAALGCLVKDYFPEPVTVSWNSGALTSGVHTFPAVLQSSGLYSLKSVVTVPSSNFGTQTYTCNVDHKPSNTKVDKTVERKCCVECPPCPAPPVAGPSVFLFPPKPKDTLMISRTPEVTCVVVDVSHEDPEVQFNWYVDGVEVHNAKTKPREEQFNSTFRVVSVLTVVHQDWLNGKEYKCKVSNKGLPAPIEKTISKTKGQPREPQVYTLPPSREEMTKNQVSLTCLVDGFYPSDIAVEWESNGQPENNYDTTPPMLDSDGSFFLYSDLTVDKSRWQQGNVFSCSVMHEALHNHYTQKSLSLSPGK
light 2: not shown
heavy 2: not shown
B2: iPS:327286 (bispecific antibody, human IgG1, kappa, lambda, N297G)
light 1: B1 light 1 with P100E
heavy 1: not shown
light 2: QSVLTQPPSVSAAPGQKVTISCSGSSSNIGNNYVSWYQQLPGTAPKLLIYDNNKRPSGIPDRFSGSKSGTSTTLGITGLQTGDEADYYCGTWDSRLSAVVFGKGTKLTVLGQPKANPTVTLFPPSSEELQANKATLVCLISDFYPGAVTVAWKADGSPVKAGVETTKPSKQSNNKYAAKSYLSLTPEQWKSHRSYSCQVTHEGSTVEKTVAPTECS
heavy 2: QVQLVESGGGVVQPGRSLRLSCAASGFTFSSFGMHWVRQAPGKELEWVAVISFDGSIKYSVDSVKGRFTISRDNSKNTLFLQMNSLRAEDTAVYYCARDRLNYYDSSGYYHYKYYGMAVWGQGTTVTVSSASTKGPSVFPLAPSSKSTSGGTAALGCLVKDYFPEPVTVSWNSGALTSGVHTFPAVLQSSGLYSLESVVTVPSSSLGTQTYICNVNHKPSNTKVDKKVEPKSCDKTHTCPPCPAPELLGGPSVFLFPPKPKDTLMISRTPEVTCVVVDVSHEDPEVKFNWYVDGVEVHNAKTKPCEEQYGSTYRCVSVLTVLHQDWLNGKEYKCKVSNKALPAPIEKTISKAKGQPREPQVYTLPPSRKEMTKNQVSLTCLVKGFYPSDIAVEWESNGQPENNYKTTPPVLKSDGSFFLYSKLTVDKSRWQQGNVFSCSVMHEALHNHYTQKSLSLSPGK
B3: iPS:327282 (bispecific antibody, human IgG1, kappa, lambda, N297G)
light 1: B1 light 1
heavy 1: not shown
light 2: B2 light 2 with K103G
heavy 2: B2 heavy 2 with E44G
B4: iPS:327278 (bispecific antibody, human IgG1, kappa, lambda, N297G)
light 1: B1 light 1
heavy 1: not shown
light 2: not shown
heavy 2: not shown
B5: iPS:327283 (bispecific antibody, human IgG1, kappa, lambda, N297G)
light 1: EIVLTQSPATLSLSPGERATLSCRASQSVGRSLHWYQQKPGQAPRLLIKYASQSLSGIPARFSGSGSGTDFTLTISSLEPEDFAVYYCHQSSRLPFTFGPGTKVDIKRTVAAPSVFIFPPSDEQLKSGTASVVCLLNNFYPREAKVQWKVDNALQSGNSQESVTEQDSKDSTYSLESTLTLSKADYEKHKVYACEVTHQGLSSPVTKSFNRGEC
heavy 1: not shown
light 2: B2 light 2 with K103G
heavy 2: B2 heavy 2 with E44G
B6: iPS:327279 (bispecific antibody, human IgG1, kappa, lambda, N297G)
light 1: B5 light 1
heavy 1: not shown
light 2: not shown
heavy 2: not shown
B7: iPS:327280 (bispecific antibody, human IgG1, kappa, lambda, N297G)
light 1: not shown
heavy 1: not shown
light 2: B2 light 2 with K103G
heavy 2: B2 heavy 2 with E44G
B8: iPS:327284 (bispecific antibody, human IgG1, kappa, lambda, N297G)
light 1: DIQMTQSPSSLSASVGDRITITCRASQSISRYLNWYQQKPGKAPKLLIYAASSLQSGIPSRFSGSGSGTDFTLTINSLQPEDFATYFCQQSYSPPFTFGEGTKVDIKRTVAAPSVFIFPPSDEQLKSGTASVVCLLNNFYPREAKVQWKVDNALQSGNSQESVTEQDSKDSTYSLESTLTLSKADYEKHKVYACEVTHQGLSSPVTKSFNRGEC
heavy 1: not shown
light 2: B2 light 2
heavy 2: B2 heavy 2
B9: iPS:327285 (bispecific antibody, human IgG1, kappa, lambda, N297G)
light 1: not shown
heavy 1: not shown
light 2: B2 light 2
heavy 2: B2 heavy 2
B10: iPS:328000 (bispecific antibody, human IgG2, kappa, lambda)
light 1: not shown
heavy 1: QVQLQESGPGLVKPSQTLSLTCTVSGGSISSGGYYWSWIRQHPGKGLEWIGYIYYSGNTYYNPSLKSRVTISGDTSKNQFSLKLRSVTAADTAVYYCTRGGAARGMDVWGQGTTVTVSSASTKGPSVFPLAPCSRSTSESTAALGCLVKDYFPEPVTVSWNSGALTSGVHTFPAVLQSSGLYSLKSVVTVPSSNFGTQTYTCNVDHKPSNTKVDKTVERKCCVECPPCPAPPVAGPSVFLFPPKPKDTLMISRTPEVTCVVVDVSHEDPEVQFNWYVDGVEVHNAKTKPREEQFNSTFRVVSVLTVVHQDWLNGKEYKCKVSNKGLPAPIEKTISKTKGQPREPQVYTLPPSREEMTKNQVSLTCLVDGFYPSDIAVEWESNGQPENNYDTTPPMLDSDGSFFLYSDLTVDKSRWQQGNVFSCSVMHEALHNHYTQKSLSLSPGK
light 2: B2 light 2 with K103G
heavy 2: QVQLVESGGGVVQPGRSLRLSCAASGFTFSSFGMHWVRQAPGKGLEWVAVISFDGSIKYSVDSVKGRFTISRDNSKNTLFLQMNSLRAEDTAVYYCARDRLNYYDSSGYYHYKYYGMAVWGQGTTVTVSSASTKGPSVFPLAPCSRSTSESTAALGCLVKDYFPEPVTVSWNSGALTSGVHTFPAVLQSSGLYSLESVVTVPSSNFGTQTYTCNVDHKPSNTKVDKTVERKCCVECPPCPAPPVAGPSVFLFPPKPKDTLMISRTPEVTCVVVDVSHEDPEVQFNWYVDGVEVHNAKTKPREEQFNSTFRVVSVLTVVHQDWLNGKEYKCKVSNKGLPAPIEKTISKTKGQPREPQVYTLPPSRKKMTKNQVSLTCLVKGFYPSDIAVEWESNGQPENNYKTTPPMLKSDGSFFLYSKLTVDKSRWQQGNVFSCSVMHEALHNHYTQKSLSLSPGK
B11: iPS:326417 (bispecific antibody, human IgG1, kappa, N297G)
light 1: not shown
heavy 1: not shown
light 2: EIVLTQSPGTLSLSPGERATLSCRASQSVSSGYLTWYQQKPGQAPRLLIYGASSRATGIPDRFSGSGSGTDFTLTISRLEPEDFAVYYCQQYGNSLSRFGQGTKLEIKRTVAAPSVFIFPPSDEQLKSGTASVVCLLNNFYPREAKVQWKVDNALQSGNSQESVTEQDSKDSTYSLKSTLTLSKADYEKHKVYACEVTHQGLSSPVTKSFNRGEC
heavy 2: not shown

Legend:
[1] = target: T1, human PAC1 receptor; experiment: cell-based or functional assay
[2] = target: human CGRP receptor (human, UniProt Q16602 23-461; O60894 27-148); experiment: cell-based or functional assay
Sequence of human CGRP receptor (Q16602 23-461 limits assumed, chain 1 of 2): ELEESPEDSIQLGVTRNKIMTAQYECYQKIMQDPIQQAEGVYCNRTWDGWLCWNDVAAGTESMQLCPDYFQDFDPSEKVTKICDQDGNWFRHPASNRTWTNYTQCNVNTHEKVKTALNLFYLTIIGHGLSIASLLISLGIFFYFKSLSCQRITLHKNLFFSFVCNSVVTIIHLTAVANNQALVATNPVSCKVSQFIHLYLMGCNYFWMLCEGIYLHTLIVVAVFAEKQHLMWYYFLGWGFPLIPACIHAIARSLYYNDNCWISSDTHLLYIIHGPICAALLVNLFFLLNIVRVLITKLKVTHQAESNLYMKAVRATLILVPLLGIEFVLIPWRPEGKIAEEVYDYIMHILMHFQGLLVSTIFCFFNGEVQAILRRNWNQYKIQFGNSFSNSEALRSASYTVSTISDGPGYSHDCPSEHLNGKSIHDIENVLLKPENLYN
Sequence of human CGRP receptor (O60894 27-148 limits assumed, chain 2 of 2): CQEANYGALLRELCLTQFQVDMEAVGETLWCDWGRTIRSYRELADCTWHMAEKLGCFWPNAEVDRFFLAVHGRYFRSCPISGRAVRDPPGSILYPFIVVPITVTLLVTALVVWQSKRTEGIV

Binder	% inhibition of human PAC1 [1] [%]	% inhibition of human CGRPR [2] [%]
B1	61	84
B2	23	85
B3	58	87
B4	47	85
B5	99	85
B6	95	73
B7	83	80
B8	25	77
B9	9	84
B10	63	75
B11	48	66
